In patent publication US12258605B2, “Alkane oxidation by modified hydroxylases” (The California Institute of Technology, priority 2005, dated 2025):

Experiments:
Assay type in all cases: biochemical
[1] = Reactions on alkanes, total turnovers (Table 18): ethane; settings: ethane (2 C atoms); for % rel. act.: TTN normalized to the highest value of the variant's series; for TTN: total turnovers, standardized reaction conditions
Protocol: (§1) Reactions on alkanes. Reactions with alkanes from pentane to decane were carried out at 3 mL-scale using 100 mM KPi pH 8.0 buffer containing 2% ethanol (to allow alkane solubilization) and purified protein. 2.5 mL KPi buffer were added with 60 μL of 90 mM alkane solution in ethanol (final conc.=1.8 mM), 150 μL enzyme solution at 1 μM (final conc.=50 nM), and 300 μL NADPH regeneration solution (100 units/mL isocitrate dehydrogenase, 70 mg/mL isocitrate, 1.5 mg/ml NADP^+). Vials were sealed and stirred for 24 hours at 4° C. 1 mL-aliquot of the reaction was removed, added with 10 μl internal standard (25 mM 1-bromohexane in ethanol), and extracted with 200 μl chloroform (30 sec vortexing, 1 min centrifugation at 10000 g). The organic phase was removed and analyzed by gas chromatography. Reactions with ethane, propane, and butane were carried out as described for longer alkanes with the only difference that alkane-saturated KPi buffer was used. Propane reactions with variants from HL5 and L9 libraries were performed on 1 mL-scale reaction using 20 nM enzyme to reduce oxygen limitation. Propane and butane reactions were analyzed by direct injection of reaction solution on the GC using 1-pentanol as internal standard. Ethane reaction products were functionalized (see below) and analyzed by GC using 1-butanol as internal standard. All measurements were performed in triplicate.
(§2) Products from alkane reactions were identified and quantified by gas chromatography using authentic standards and calibration curves with internal standards. For the reactions with alkanes from pentane to decane, GC analyses were carried out using a Shimadzu GC-17A gas chromatograph, Agilent HP5 column (30 m×0.32 mm×0.1 μm film), 1 μL injection, FID detector, and the following separation program: 250° C. inlet, 250° C. detector, 50° C. oven for 3 min, 5° C./min gradient to 100° C., 25° C./min gradient to 230° C., and 230° C. for 3 min. For butane and propane (TTN) reactions, GC analyses were carried out using a Hewlett-Packard 5890 Series II Plus gas chromatograph, Supelco SPB-1 column (60 m×0.52 mm×0.5 μm film), 0.5 μL injection, FID detector, and the following separation program: 250° C. inlet, 275° C. detector, 80° C. oven for 2 min, 10° C./min gradient to 110° C., 25° C./min gradient to 275° C., and 275° C. for 2.5 min. For ethane and propane (rate) reactions, analysis of reaction mixtures was carried out by derivatization to alkyl nitrites followed by GC-ECD analysis. For laurate, reaction product analysis was carried out by derivatization with N-methyl-N-trimethylsilylheptafluorobutyramide followed by extraction with hexane. Organic solutions were analyzed by FID-GC.
(§3) TTNs for each variant-substrate pair were determined using standardized reaction conditions (identical enzyme and substrate concentration, incubation time, cofactor regeneration system) (Table 18). TTN values were used to assess performance because TTN is a cumulative measure of both catalytic and coupling efficiency and because mutants were selected based on improvement in this property. To facilitate comparison among the variants, TTNs were normalized to the highest value in the series (MTN=Maximal Turnover Number) and plotted for the increasing-sized substrates (FIG. 38). A gradual shift of the enzyme's substrate preference during laboratory evolution is evident from these profiles. The marginal activity of wild-type BM3 on these substrates (MTN=150) is restricted to the long-chain alkanes, where it is a promiscuous function of BM3's high C12-C20 fatty acid hydroxylase activity. In the first evolutionary intermediates, substrate preference centers on medium-chain alkanes […], reflecting their selection for activity on octane. In 35E11, selected for activity on propane, preference still centers on C6-C8 alkanes but now extends towards the shorter ones, including propane. Propane activity becomes prevalent with the transition from variant ETS8 to 19A12. […]

[2] = Reactions on alkanes, total turnovers (Table 18): propane; settings: propane (3 C atoms); for % rel. act.: TTN normalized to the highest value of the variant's series; for TTN: total turnovers, standardized reaction conditions
Protocol: as §1, §2
Because 35E11 was only marginally stable, the engineering strategy described herein (see below) involved an initial stabilization step followed by iterative rounds of mutagenesis and screening. Random, saturation and site-directed mutagenesis methods were used to create libraries of mutants (FIG. 35), which were screened for activity on a propane surrogate, dimethyl ether. Positives were confirmed in a re-screen and purified for further analysis. Reactions with purified enzymes were carried out in sealed vials in the presence of propane-saturated buffer and a cofactor regeneration system. Improvement in propane total turnover number-moles of propanol produced per mole of enzyme—was a selection criterion for taking a mutant to the next round.
TTNs for each variant-substrate pair were determined using standardized reaction conditions (identical enzyme and substrate concentration, incubation time, cofactor regeneration system) (Table 18). TTN values were used to assess performance because TTN is a cumulative measure of both catalytic and coupling efficiency and because mutants were selected based on improvement in this property. […]

[3] = Reactions on alkanes, total turnovers (Table 18): butane; settings: butane (4 C atoms); for TTN: total turnovers, standardized reaction conditions
Protocol: as §1, §2, §3

[4] = Reactions on alkanes, total turnovers (Table 18): octane; settings: octane (8 C atoms); for % rel. act.: TTN normalized to the highest value of the variant's series; for TTN: total turnovers, standardized reaction conditions
Protocol: as §1, §2, §3

[5] = Reactions on alkanes, total turnovers (Table 18): nonane; settings: nonane (9 C atoms); for % rel. act.: TTN normalized to the highest value of the variant's series; for TTN: total turnovers, standardized reaction conditions
Protocol: as §1, §2, §3

[6] = Reactions on alkanes, total turnovers (Table 18): decane; settings: decane (10 C atoms); for % rel. act.: TTN normalized to the highest value of the variant's series; for TTN: total turnovers, standardized reaction conditions
Protocol: as §1, §2, §3

B1: Wild-type BM-3: wild-type cytochrome P450 BM-3 from Bacillus megaterium, SEQ ID NO:1 (protein, listed as Bacillus megaterium)
chain: TIKEMPQPKTFGELKNLPLLNTDKPVQALMKIADELGEIFKFEAPGRVTRYLSSQRLIKEACDESRFDKNLSQALKFVRDFAGDGLFTSWTHEKNWKKAHNILLPSFSQQAMKGYHAMMVDIAVQLVQKWERLNADEHIEVPEDMTRLTLDTIGLCGFNYRFNSFYRDQPHPFITSMVRALDEAMNKLQRANPDDPAYDENKRQFQEDIKVMNDLVDKIIADRKASGEQSDDLLTHMLNGKDPETGEPLDDENIRYQIITFLIAGHETTSGLLSFALYFLVKNPHVLQKAAEEAARVLVDPVPSYKQVKQLKYVGMVLNEALRLWPTAPAFSLYAKEDTVLGGEYPLEKGDELMVLIPQLHRDKTIWGDDVEEFRPERFENPSAIPQHAFKPFGNGQRACIGQQFALHEATLVLGMMLKHFDFEDHTNYELDIKETLTLKPEGFVVKAKSKKIPLGGIPSPSTEQSAKKVRKKAENAHNTPLLVLYGSNMGTAEGTARDLADIAMSKGFAPQVATLDSHAGNLPREGAVLIVTASYNGHPPDNAKQFVDWLDQASADEVKGVRYSVFGCGDKNWATTYQKVPAFIDETLAAKGAENIADRGEADASDDFEGTYEEWREHMWSDVAAYFNLDIENSEDNKSTLSLQFVDSAADMPLAKMHGAFSTNVVASKELQQPGSARSTRHLEIELPKEASYQEGDHLGVIPRNYEGIVNRVTARFGLDASQQIRLEAEEEKLAHLPLAKTVSVEELLQYVELQDPVTRTQLRAMAAKTVCPPHKVELEALLEKQAYKEQVLAKRLTMLELLEKYPACEMKFSEFIALLPSIRPRYYSISSSPRVDEKQASITVSVVSGEAWSGYGEYKGIASNYLAELQEGDTITCFISTPQSEFTLPKDPETPLIMVGPGTGVAPFRGFVQARKQLKEQGQSLGEAHLYFGCRSPHEDYLYQEELENAQSEGIITLHTAFSRMPNQPKTYVQHVMEQDGKKLIELLDQGAHFYICGDGSQMAPAVEATLMKSYADVHQVSEADARLWLQQLEEKGRYAKDVWAG
% rel. act. [1]: 0.0% | TTN [1]: 0 | % rel. act. [2]: 0.0% | TTN [2]: 0 | % rel. act. ([3]; TTN normalized to the highest value of the variant's series): 0.0% | TTN [3]: 0 | % rel. act. [4]: 18.8% | TTN [4]: 30 ± 42 | % rel. act. [5]: 68.8% | TTN [5]: 110 ± 10 | % rel. act. [6]: 100.0% | TTN [6]: 160 ± 95

B2: 35-E11: P450 BM-3 variant, SEQ ID NO:7: 53-5H substitutions plus E464G and I710T (protein)
chain: TIKEMPQPKTFGELKNLPLLNTDKPVQALMKIADELGEIFKFEAPGCVTRYLSSQRLIKEACDESRFDKNLSQALKFFRDFSGDGLFTSWTHEINWKKAHNILLPSFSQQAMKGYHAMMVDIAVQLVQKWERLNADEHIEVSEDMTRLTLDTIGLCGFNYRFNSFYRDQPHPFIISMVRALDEVMNKLQRANPDDPAYDENKRQCQEDIKVMNDLVDKIIADRKARGEQSDDLLTQMLNGKDPETGEPLDDGNISYQIITFLIAGHETTSGLLSFALYFLVKNPHVLQKVVEEAARVLVDPVPSYKQVKQLKYVGMVLNEALRLWPTFPAFSLYAKEDTVLGGEYPLEKGDEVMVLIPQLHRDKTIWGDDVEEFRPERFENPSAIPQHAFKPFGNGQRACIGQQFALHEATLVLGMMLKHFDFEDHTNYELDIKETLTLKPEGFVVKAKSKKIPLGGIPSPSTGQSAKKVRKKAENAHNTPLLVLYGSNMGTAEGTARDLADIAMSKGFAPQVATLDSHAGNLPREGAVLIVTASYNGHPPDNAKQFVDWLDQASADEVKGVRYSVFGCGDKNWATTYQKVPAFIDETLAAKGAENIADRGEADASDDFEGTYEEWREHMWSDVAAYFNLDIENSEDNKSTLSLQFVDSAADMPLAKMHGAFSTNVVASKELQQPGSARSTRHLEIELPKEASYQEGDHLGVIPRNYEGTVNRVTARFGLDASQQIRLEAEEEKLAHLPLAKTVSVEELLQYVELQDPVTRTQLRAMAAKTVCPPHKVELEALLEKQAYKEQVLAKRLTMLELLEKYPACEMKFSEFIALLPSIRPRYYSISSSPRVDEKQASITVSVVSGEAWSGYGEYKGIASNYLAELQEGDTITCFISTPQSEFTLPKDPETPLIMVGPGTGVAPFRGFVQARKQLKEQGQSLGEAHLYFGCRSPHEDYLYQEELENAQSEGIITLHTAFSRMPNQPKTYVQHVMEQDGKKLIELLDQGAHFYICGDGSQMAPAVEATLMKSYADVHQVSEADARLWLQQLEEKGRYAKDVWAG
modifications: mutant P450 35-E11 protein sequence
% rel. act. [1]: 3.5% | TTN [1]: 220 ± 30 | % rel. act. [2]: 71.7% | TTN [2]: 4550 ± 350 | TTN [3]: 5150 ± 104 | % rel. act. [4]: 93.7% | TTN [4]: 5950 ± 323 | % rel. act. [5]: 52.6% | TTN [5]: 3350 ± 133 | % rel. act. [6]: 13.5% | TTN [6]: 860 ± 223
